Experimental findings from patent publication US20190062752, “Transcription Factor Trapping by RNA in Gene Regulatory Elements” (Whitehead Institute for Biomedical Research, published 2019) are described below.

The target in data set [1] is T1, YY1 (full length) (Mus musculus, UniProt Q00899 Q00899:1-414). The data set is described as follows: competition; described as RNA incompatible with YY1 binding in vitro. The following applies: tags: N-terminal His6. The method, then: A radioactively labeled 30-nt RNA probe containing sequence derived from the promoter region of Arid1a gene shown in blue above the image or the complementary sequence shown in pink was incubated with 400 nM of the recombinant murine YY1. The arrows indicate free probe and probe bound by YY1. […] Radioactively labeled 30-nt RNA probe derived from the promoter region of Arid1a gene was incubated with 400 nM of recombinant murine YY1. Sequence of the probe is shown above the image in blue. In competition EMSA, 100-fold molar excess of cold competitor RNA with the same sequence as the radiolabeled RNA (Arid1a RNA A), complementary sequence (Arid1a RNA 1), or a different sequence (Arid1a RNA B) was pre-incubated with the recombinant YY1 before the probe was added to the binding reaction. The arrows indicate free probe and probe bound by YY1. Asterisk indicates the position of double-stranded RNA formed when single-stranded cold RNA was incubated with the complementary labelled RNA probe. […] Radioactively labeled 30-nt RNA probe derived from the promoter region of Arid1a gene was incubated with 400 nM of recombinant murine YY1. Sequence of the probe and competitor RNA are shown above the image. For supershift assay, 0.5 μl of YY1 antibodies (# sc-7341) was added to the RNA probe. […]
T1 sequence (Q00899 whole entry, one chain of several): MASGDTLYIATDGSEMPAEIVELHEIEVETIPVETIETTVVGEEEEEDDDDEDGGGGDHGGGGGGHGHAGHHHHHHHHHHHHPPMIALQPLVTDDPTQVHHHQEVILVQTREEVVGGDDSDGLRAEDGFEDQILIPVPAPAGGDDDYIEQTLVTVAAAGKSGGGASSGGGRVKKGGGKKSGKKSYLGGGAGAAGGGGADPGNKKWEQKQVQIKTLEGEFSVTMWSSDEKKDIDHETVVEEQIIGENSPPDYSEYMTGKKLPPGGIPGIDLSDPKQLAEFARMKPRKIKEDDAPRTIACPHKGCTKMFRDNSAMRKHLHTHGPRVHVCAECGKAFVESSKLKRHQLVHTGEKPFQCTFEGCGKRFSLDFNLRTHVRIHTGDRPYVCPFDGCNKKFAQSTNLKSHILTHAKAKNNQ

Data set [2] has as its target T2, YY1 C-terminal region (zinc fingers) (Mus musculus, UniProt Q00899 Q00899:271-414). The data set is described as follows: EMSA; zinc-finger region binds DNA. To be noted: label: 32P. The method, then:
(§1) Sizes of N-terminal and C-terminal regions of YY1 are drawn to scale. […] 5 nM of radioactively labeled 30-bp DNA probe derived from the promoter region of Arid1a gene containing a consensus YY1 binding motif was incubated with increasing concentrations of full-length recombinant murine YY1 protein (FL), the N-terminal portion of YY1 (N-term) lacking the zinc-fingers or the C-terminal portion (C-term) containing the zinc fingers. […] The arrows indicate free probe and probe bound by YY1. […] 5 nM of radioactively labeled 30-nt RNA probe derived from the promoter region of Arid1a gene was incubated with increasing concentrations of full-length recombinant murine YY1 protein (FL), the N-terminal portion of YY1 (N-term) lacking the zinc-fingers or the C-terminal portion (C-term) containing the zinc fingers. […] The arrows indicate free probe and probe bound by YY1;
(§2) EMSAs with the recombinant murine YY1 were performed in a similar way as those with the NE. DNA-binding reactions (20 μl) contained 10 mM HEPES-KOH pH 7.5, 12 mM Tris-HCl pH 7.4, 50 mM NaCl, 50 mM KCl, 5 mM MgCl₂, 0.1 mM ZnCl₂, 0.01% NP-40, 5% glycerol, 500 ng poly(dI-dC), 0.5 mM DTT, and recombinant murine YY1. […]
Background: A gel shift assay detects complexes by their altered migration in electrophoresis.

Data set [3] deals with T1, YY1 (full length). The data set is described as follows: EMSA; higher affinity than for RNA; 0.1 mM ZnCl2, 5 mM MgCl2; binding curve only in FIG. 7B. To be noted: tags: N-terminal His6; label: 32P. The method, then: (§3) 5 nM of radioactively labeled 30-bp DNA probe derived from the promoter region of Arid1a gene containing a consensus YY1 binding motif ([…]; SEQ ID NO: 4) was incubated with increasing concentrations of recombinant murine YY1 protein. Right panel: EMSA of YY1-RNA complexes at different concentrations of recombinant YY1. 5 nM of radioactively labeled 30-nt RNA probe derived from the same region of the Arid1a gene was incubated with increasing concentrations of recombinant YY1 protein.
(§4) EMSAs with the recombinant murine YY1 were performed in a similar way as those with the NE. DNA-binding reactions (20 μl) contained 10 mM HEPES-KOH pH 7.5, 12 mM Tris-HCl pH 7.4, 50 mM NaCl, 50 mM KCl, 5 mM MgCl₂, 0.1 mM ZnCl₂, 0.01% NP-40, 5% glycerol, 500 ng poly(dI-dC), 0.5 mM DTT, and recombinant murine YY1. RNA-binding reactions (20 μl) contained 10 mM HEPES-KOH pH 7.5, 12 mM Tris-HCl pH 7.4, 50 mM NaCl, 50 mM KCl, 5 mM MgCl₂, 0.1 mM ZnCl₂, 0.01% NP-40, 5% glycerol, 10 U SUPERase In RNase inhibitor (Life Technologies), 0.5 mM DTT, and recombinant murine YY1.

The target of data set [4] is T1, YY1 (full length). The data set is described as follows: EMSA; weaker than DNA; 0.1 mM ZnCl2, 5 mM MgCl2. The following applies: tags: N-terminal His6; label: 32P. On the procedure:
as §3, §4

The target in data set [5] is T2, YY1 C-terminal region (zinc fingers). The data set is described as follows: EMSA; zinc-finger region does not bind RNA. To be noted: label: 32P. On the procedure:
as §1, §2

Data set [6] has as its target YY1 N-terminal region (Mus musculus, UniProt Q00899 Q00899:1-277). In words: EMSA; N-terminal region binds RNA. To be noted: label: 32P. On the procedure:
as §1, §2

The target in data set [7] is T3, OCT4 (Homo sapiens, UniProt Q01860 Q01860:1-360). In words: EMSA; legend: OCT4 does not bind RNA in vitro. The following applies: tags: Abcam ab134876; label: 32P. On the procedure:
(§5) The x-axis indicates distance from the TSS in kilobases. The y-axis indicates average density of uniquely mapped reads per genomic bin. […] A radioactively labeled 40-bp DNA probe containing OCT4 consensus binding motif derived from the enhancer of Lefty1 gene was incubated with 250 nM of the recombinant human OCT4 (Abcam, # ab134876). In competition EMSA, 100-fold molar excess of cold competitor DNA containing the OCT4 motif (Lefty1 DNA comp), cold DNA competitor, in which bases adjacent the OCT4 motif were randomly substituted (mut Lefty1 DNA comp), cold DNA competitor lacking the OCT4 motif (Arid1a DNA comp), or cold RNA competitor (Arid1a RNA comp) was pre-incubated with the recombinant OCT4 before the radioactively labeled DNA probe was added to the binding reaction. The arrows indicate free probe and probe bound by OCT4.

Data set [8] deals with T1, YY1 (full length). In words: EMSA; 240 nM YY1 in FIG. 9C. The following applies: tags: N-terminal His6; label: 32P. The method, then: A radioactively labeled 30-bp DNA probe containing YY1 consensus binding motif derived from the promoter region of Arid1a gene was incubated with 80 nM of the recombinant murine YY1. For supershift assay, 0.5 μl of YY1 antibodies (# sc-7341) was added to the DNA probe pre-incubated with the recombinant protein. In competition EMSA, 100-fold molar excess of cold competitor DNA containing YY1 motif (Spec comp) or lacking YY1 motif (Nspec comp) was pre-incubated with the recombinant YY1 before the radioactively labeled DNA probe was added to the binding reaction. The arrows indicate free probe, probe bound by YY1, probe bound by YY1 fragment, and supershifted probe. […] Radioactively labeled 30-bp DNA probe containing YY1 consensus binding motif derived from the promoter region of Rpl30 gene was incubated with 240 nM of the recombinant murine YY1. In competition EMSA, 100-fold molar excess of cold competitor RNA derived from the promoter region of Arid1a gene was pre-incubated with the recombinant murine YY1 before the radioactively labeled DNA probe was added to the binding reaction. The arrows indicate free probe and probe bound by YY1;
EMSAs with the recombinant murine YY1 were performed in a similar way as those with the NE. […]

Data set [9] has as its target T1, YY1 (full length). The data set is described as follows: EMSA; tethered RNA outcompetes DNA with untethered RNA; IC50 values only in figure. The following applies: tags: N-terminal His6; label: 32P (probe 2); 30-bp DNA duplex with 30-nt RNA overhang at each 3' end.
For data set [10], the target named is T3, OCT4. The data set is described as follows: EMSA; 250 nM OCT4. To be noted: tags: Abcam ab134876; label: 32P. The method, then:
as §5

T2 sequence (Q00899 271-414, one chain of several): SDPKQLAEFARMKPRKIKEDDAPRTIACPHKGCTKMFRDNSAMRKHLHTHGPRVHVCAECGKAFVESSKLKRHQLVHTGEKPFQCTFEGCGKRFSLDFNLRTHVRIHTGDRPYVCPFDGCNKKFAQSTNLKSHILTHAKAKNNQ
T3 sequence (Q01860 whole entry, one chain of several): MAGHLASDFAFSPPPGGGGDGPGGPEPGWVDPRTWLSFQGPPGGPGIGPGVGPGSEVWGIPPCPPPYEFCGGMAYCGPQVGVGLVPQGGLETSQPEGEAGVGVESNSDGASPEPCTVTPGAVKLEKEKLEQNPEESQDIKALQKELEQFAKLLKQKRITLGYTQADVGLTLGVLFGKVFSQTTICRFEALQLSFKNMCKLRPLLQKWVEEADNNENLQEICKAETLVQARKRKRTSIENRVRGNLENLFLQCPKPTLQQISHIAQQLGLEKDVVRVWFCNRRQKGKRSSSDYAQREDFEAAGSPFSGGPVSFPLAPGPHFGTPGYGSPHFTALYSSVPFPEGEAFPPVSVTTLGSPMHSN
Chain of YY1 N-terminal region (Q00899 1-277, one chain of several): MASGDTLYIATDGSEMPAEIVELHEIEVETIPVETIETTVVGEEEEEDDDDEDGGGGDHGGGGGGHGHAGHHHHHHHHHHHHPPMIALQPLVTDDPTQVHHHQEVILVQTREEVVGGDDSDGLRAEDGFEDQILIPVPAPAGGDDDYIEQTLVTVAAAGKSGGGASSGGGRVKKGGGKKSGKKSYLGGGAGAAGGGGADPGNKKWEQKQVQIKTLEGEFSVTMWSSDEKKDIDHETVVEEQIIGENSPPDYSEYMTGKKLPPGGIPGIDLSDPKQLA

For CCCGCCUCCCCAGGCCUACGCGCUGAGCUC (ssRNA) [Arid1a promoter RNA B], the binding result in [1] is “no binding”.

B1: Arid1a promoter DNA with YY1 motif (dsDNA)
DNA 1: CTCTTCTCTCTTAAAATGGCTGCCTGTCTG
DNA 2: CAGACAGGCAGCCATTTTAAGAGAGAAGAG
B1: the binding result in data set [2] and in data set [3] was “binds” each time. CUCUUCUCUCUUAAAAUGGCUGCCUGUCUG (ssRNA) [Arid1a promoter RNA A]: the binding result was “binds” in [4], “no binding” in data set [5], “binds” in data set [6] and “no binding” in data set [7].

B2: Rpl30 promoter DNA with YY1 motif (dsDNA)
DNA 1: TCGCTCCCCGGCCATCTTGGCGGCTGGTGT
DNA 2: ACACCAGCCGCCAAGATGGCCGGGGAGCGA
As to B2, in data set [8], the binding result was “binds”.

B3: Rpl30 DNA with tethered Arid1a RNA (mixed)
mixed 1: TCGCTCCCCGGCCATCTTGGCGGCTGGTGTCUCUUCUCUCUUAAAAUGGCUGCCUGUCUG
mixed 2: ACACCAGCCGCCAAGATGGCCGGGGAGCGACUCUUCUCUCUUAAAAUGGCUGCCUGUCUG
As to B3, the binding result in data set [9] is “binds”.

B4: Lefty1 enhancer DNA (dsDNA)
DNA 1: GGTGGGAGGGAGACTGCCCTTTGTCATGTAGAAGGAGCTT
DNA 2: AAGCTCCTTCTACATGACAAAGGGCAGTCTCCCTCCCACC
With B4, the binding result in data set [10] was “binds”.
